Experiment: label from the status in PepcDB records

Row | Sequence | protein production
1 | MSTPDATSPGSQQQDVFDFLGRGAGDAPVVRIDTHGAAVFLEGNRAMKIKRAVKFPFLDYSTLAKRKIACEQELEVGHRFAPTIYRRVVPITRTDKGALQIGGEGPAVEWAVEMMRFDDSATLDHLARAGSLGPGLIDAVADAIAASHQAAPLAATAPWGASIEPILADDTNELAAGGFAAADVAALDNGSRNALGRLRPLLEQRGVAGFVRWCHGDLHLANIVVIDGKPTLFDAIEFDPALASVDVLYDLAFPLMDLLHYGRGSDSAQLLNRYLAVTNADNLDALSALPLLLSMRAAIRAKVMLARPAADETIRRANRAIAESYFELALRLIAPPPPRLIAVGGLSGTGKSVLARALSGNVPPLPGAVVLRSDVARKRLHGVADTERLPATAYTTEVTEAVYRGLVERAAHILKQGHSVIVDAVFSKPEERDAIESVAAGLGISFHGLFLTADLATRVARVAGRTADASDATPEIVRQQQSYAQGVIGWTSIDAGGTPAETLSRAVAALPQTAQVCSTLEHHHHHH | not failed
2 | MSPIDEFTYIKQNKIVYDSNSLIQLYFPIMGSDAMALYDYFVHFFDDGIRRHKFSEVLNHLQYGMPRFQDALVMLTALDLLTVYQATGTYLVKLNQAMSNELFLSNPIYRRLLEKRIGEVAVAELDMKIPKNARDISKKFTDVFSDLGQPKQEVNRSKNVFDLESFKRLMMRDGLRFNNEKDDVLGIYSVSELYHLNWYDTYQLAKQTAINGMIAPQRMKVQQNEGQHIKDNQSFTNNEKVILRESKNDSALVFLEKIKRSRKAVTTSGEKTLLEDLAKMNFLDEVINVMVLYTLNKTKSANLNKAYIMKVANDFAFQNVMTAEDAVLKIRDFSDQKVRTKTETKKKQSNVPEWSNPDYKDEVSPEKEIELEQFKTDALKRLERLGKD | not failed
3 | MVTIANDFLTVKISRHGAELTSIKDNLTGRERLWQADPAVWGRHAPVLFPIVGALADNQYHYAGKTYHMGQHGFARDRDFTVLSATPFKASFVLKDDDKTRAMYPFAFRLIITFALENNNLHVTYHVDNPDKSEPLFFSIGGHPGFKVPMTPDTQFSDYYLNFKPRKSLVQIPLVAGEGIDYTHRTLAATDANLALTHETFDHDALIFALLGKTTFNLVSDKTKHGVSVTMTDTPYLGVWSPYPTTGDFVCIEPWWGIADTIGSTGDLTRKLGINRLEPGTAFEKGYMISIFLEHHHHHH | failed
4 | MSKVVGLSSKKSRWLLQSLRDQQRHSLGTGFESANILLSPKYHLKDKDLRKIHKAARVGDAARVQQLLLGKCGVNDKDKKKRWQGPRDGGCGGGGACVEESPHTTALHIACAYGHPKVVMALIEGRCEINATDSEECTSLVKAVQCQEEECATILLENGADPNIVDAQGNSALHYAVYYKNTSLAAKLLDHEVNIEATNKVEILHQRGVNQSTIVAKCVENPGLQSTGTIFCPHLTPLPEQGLTSSLKLTVVLNLAGGGGGEVSRGGRETETDTGGFTPLLLAVSENKLQIAKFLLMKNANIHAVDNQKRTALMHAVSHDSTHLVRFVLQQGVDLFLNDAFGLTAIDYAADFKYNTKVKQHQGLEKKSKSVSENLPLIRIGVDGLLQVNGQAVEEGRKQEWSEWGASESLQAAALDGGDLTSPLPRRRNKQAGKPGTQESPSVDSKEQDGGSDLNIKEENKKGYEEWSRDFVNELTSEKFGSVACDLLPVKDSWSLNGMDPNKGRPAKRKSKEKHKVEASLMMAEHGIDL | failed
5 | MDLFLAMRVYVKVVETGSLTAAAQACSISTTMVGNHLRALEQRLGVSLLQRTTRRQRLTEFGTAYYQRCLEVLGLVAQSEQLAEQAQGEPTGTLRITAPLTFGSELLAPALVGFSQRFPDVKLDLVLTNQRLDMIDNGFDVAIRLGNLAQSSPLIARPLQDYTLTICAAPDYLARHSAPTRPEDLRAHNCLAFAYPAGDEWRTAGTQWRMTGPEGEVLVDVDGSMVANTSAGLYQAARAGMGVVMLPDALVQRDLQEGRLVALLPDYHLPRRPMNLLYVQDRYRLPKLRSFVEFATALWGR | failed
6 | MNSYKYLKYSQYAKQALIFINFLAVTYYVFVYLFASKYIVAKNLSHVLLDKLDIVPIAPENIFFTTLFFFAIFLIVMFYRESILNKKEEINDWLIVAEIVLMILTFISLQFSYNGLFLLVFADIFYSYANFYNVKEQKYWLLFIILGFSMLLISNFDLLSLVMRLPSLDVYISFFPSGSRLIVMFIKNFLYSLNIIVFLISLVAYIMYSVAENHKIEEELRMAARANIELNDYVSLAEKIAEDKERKRIAREIHDTLGHALTGISAGIDAVTVLVDFDPNHAKSQLKNVSDVVREGIQDVRRSLEKMRPGALEKGSLKEALLKMIADYEKLSKLQVSLHYDWDNIDLDITKEDIIFRVIQETITNSLRHGHARHVSIDMLNEDFYIIKIKDDGIGCEDFKLGYGLTQMQERLAIIGGYADFESDDGFQTMVRIPKKKGEE | failed
7 | MSLEKWRIYEELTNAVREFESINPVRLIPEVGTNFVYSLPLPYARSTKDVAGVKGRIVKYGNSVKAVGPVEFGASDHLARAVLTYMRFYPEYRSAINIRYSREIIEEIIEIAQERGFKVSFYDRREEPEEIKAKEGATIPWGIETAIKRIKERPDIIYHLGDVGKEPMILVFGRNPREVLEKIKMLIEGHHHHHH | not failed
8 | MGETVVRDAVTIGKPAEQLYAVWRDLPGLPLLMTHLRSVEVLDDKRSRWTVEAPAPLGTVSWEAELTADEPGKRIAWRSLPGARIENSGEVLFRPAPGARGTEVVVRLTYRPPGGSAGAVIARMFNQEPSQQLRDDLMRFKREQELGLEHHHHHH | not failed
9 | MSIRIKLPDGSVREFEEEASIEDVAASISCGLEHAVAGKLNGKLVDLSTPLQDGALVEIVTRDSAEGQKIVREKSRGKGRIVALDAARGLAVIGMYLQHFALNETNGSIVSGNTTLLFVLCGGISYSIMAGRMMDRGMEPAAFRTRMLARAVFIDMIGYLLIMLNTPFGVILPAYAALFVLALVLIRRSTRVLVTTAAVLLAVSPPLMILGGSVLSGANLLGDIAGGPMSALALAPAFVAGMAIGRFDLTRMRTALSLVSSGAVMLIVSKLLGVFVLPWLSRSFEEWLVSVQGTAGAEPDQYAIWPHNVAPPLWHNLLSIAPHSASTFQTMLGLGAAFLVLGMVCLVPQKISAVLKPFAGVGRVALTMYAAQFVVIWALEISGAKYDIGAIPFGDLFVAAVATVTGWLIARLPTGPLETAMRRFDRAFSNLGPVTGPARLR | failed
10 | MNSQEQRGSFYAILSGFLYGFIGYFGISAIHGDLSASNMLFWRFLISSIFILIVLIPQLKNINDTYKSMFTAFLSGVLYYGLSTLLYFYASLYIGSGLSMVIFFTYPVIIMVFNYFFYSQTIPKIYYLAISVILIGMALLIDVNEIAFDLWGIFLGLASAFFYACYIVSSKNNEISPNVSTLMVCLGCMTTSLIVACLDHTFKVPTSFPVWLNLFGIGLVATVIPILLMLHSLKYISSEKASILSVLEPVFVVIFGVVLLGEELKPWHALGIVLVLAGALITLFSHRINLNQWLGAIYKS | failed
11 | MTAPRYPRDMIGYGATPPNANWPGNARIAVQIVLNYEEGGENNILHGDAASEAFLSEIVGAAPWPGQRHWNMETIYEYGARAGFWRLHRLMRDLPVTVYGVATALARSPDQVAAMKSAGWEIASHGLKWVEHKDMPEEEERAQIAEAIRLHTEVTGSRPRGWYTGRCSMNTVRLASEAGIDYIADTYDDDLPYWKRIDGRDQLIVPYTLDCNDMRFATPQGFNSGDQFFAYLKDSFDALYAEGGEGAPKMLSIGLHCRLIGRPGRVMALKRFLDYARGHEDVWFATRLQIAEHWVREHPPVARTRPSEMPKADFVAAYGGIFEHSPWIAERAHGLELGPAHDTAGGLHNALCRMFRSASAEERLGVLTAHPDLAGKLAQAKRLTAESTSEQASAGLDALTDEERTTFTRLNTEYVARFGFPFIIAVRDHDKASILAAFQRRIGNDRETEFAEACRQVERIAEFRLRDVLPSLEHHHHHH | not failed
12 | MSLEKQKGLAIITGASQGIGAVIAAGLATDGYRVVLIARSKQNLEKVHDEIMRSNKHVQEPIVLPLDITDCTKADTEIKDIHQKYGAVDILVNAAAMFMDGSLSEPVDNFRKIMEINVIAQYGILKTVTEIMKVQKNGYIFNVASRAAKYGFADGGIYGSTKFALLGLAESLYRELAPLGIRVTTLCPGWVNTDMAKKAGTPFKDEEMIQPDDLLNTIRCLLNLSENVCIKDIVFEMKKSIIEGHHHHHH | not failed
13 | MAAEHGLILDFTTVLGASALGGYLANRLRQPVLLGYLVTGLALGPYGLKLLSDVPRIQSLASIGVAFLLFALGVEFSLTELRRVKNIAINGSLLQIGLTTALVAFLTITLGWVDNLTQGIFLGVVLSLSSTAVVLKTLGERGETNTLHGQVMLAILIAQDLALGLILAFLPVLNQPERLVWALGIALLKVLLFLALAIALGRWIVPKLISNVAATESTELFVLTVISLCLSVALVTAKLGLSIEMGAFVAGLMVSEIDHADHALAKVLPLRDTFACLFFASIGMLIDPIALMQNLGLVLGLVTLVMLGKAIVVMPIILKFGYSLKTTILTSLGINQIGEFSFVLALAGLQLQLIPEKTYILLLETTAITLVLTPISLNIAPQLIERLTQIPFFAQSLRQFTEPNILSIPETISGHVVVAGYGRVGQVIVNILLNQGYVVLVIENSEAAIQRLRMQRIPYIFGDADSELVLEKIHLETAKALAIALPDPASSRLLLKRALAIAPKLDVIARSHHDNEIDLLTQMGAKEVVQPEFEAALELSAHLLSTLGEAKSQIDTVISDIRTDRYRSIRPRR | failed
14 | MELREVAAVSGRGGLFKILKPTKNGVILEAIDPSKKRFVAGANERVSILNEISIYTTDKDGSVPLESVLHKIHAKYGADTKITGKSSNDELGNFLSSILPEYDREKVYHSDIKKLANWYAILQANFPELLVAKKEAAPKTEAKPAEAKEEKVKAVKEEKAEAPAPAAKKAAAKKVKEVSEEATEKPAAKKAAAKKTAKAKGE | failed
15 | MDHIRTHNTHHARKSADHLCVITDGGVSAIDRVSQRNIRVRLGAEHHDQLFCQAHGLKRLLPGKSIDLHKDKKWRTLICSITKNPETSMTPDAARKNSPEMKPRKKKKRQFRQLFARSLQRLARTRSGSAEFSGPLRSVAILAQEKLGDCVLLTPLVRNLRQAFPDLEIHLITFSRASANFFMNDPQVTAVHLVKKQPRRYFREVLSRKFDLLFNTKDHPSTWFLLQSALIRARFKVGHNNPFHEGLYDRLLDTEFHAHMAVKNCALLPLLGVTADTEACRPSLPAMPVSNEIWQLLSRLAEDIRPIGVNISAGEPNRLWTEAKWRALLERFPGERFVVLSGPDDLDAKRRLEEQCPNAVASPPTRNLYEASCIVAKLRLLVTPDTSMVHVASATGTPVAGLYREAPQDISRFGPYAIPYEIVISPTGEVSGIKPESVADAVRRLMARAIGREA | failed
16 | MTSTCTICERIKLIQAHQNPYFVYELTTGYVVLADSQYFEGYTLFLAKHHVTELHHLPAHEKLRYLEEMSIVQEACAQAFHADKMNIELLGNGDAHVHWHLFPRHNGDTPNPGPVWWTPLETIYGDDVSLDIPRLSRLKRTLSVAIEATLNAREAELQALEALTRPASHRIDSN | failed
17 | MGLFFAQNMMYNHTITVYDRNYELVKVIPDEVDLSKYGHSRFKGKYRGAPVEASFSHNGKYAWISNYQMYGPGFNNPGSDKCHPSQKTDKSFLYRINTETLKIDRVIPVGSVPKFVATSTDENLILVSNWCSWDLSVVDINQNQEIKRIKLGPYPRGIVVDPASETAYVAVMGSYNIAKVNLRDFSVQWLRNIGSSPRHLNIDPAGKYLYASLNGEGKIAKISLPQGNLVKKIATGNAPRSMVLSANGQTLYVVNYGEDTVSKVRTSDMKVLQKVKVEPDPIGITYDPQTREVWVACYSGNIMIFQDLEHHHHHH | not failed
18 | NRLLSKYDPQKEAELRTWIEGLTGLSIGPDFQKGLKDGTILCTLMNKLQPGSVPKINRSMQNWHQLENLSNFIKAMVSYGMNPVDLFEANDLFESGNMTQVQVSLLALAGKAKTKGLQSGVDIGVKYSEKQER | not failed
19 | MITLEKEKVTVNPDIKVIKRDGRMVTFDSSKIYEAILKASETITPITPLIETKLEEIANRVVAEINDRFSHNIKIYEIQSIVEHELLEANEYAIAQEYINYRTKRDFERSQATDINFTINKLV | failed

From a protein production outcome set (Wang et al. 2014)
